Experimental findings from paper doi:10.1101/2020.03.20.000240 are described below.

Common to all, as to test: SPR
A general note: Surface plasmon resonance follows binding to a sensor surface in real time, without labels.

For experiment [1], the target named is UmuDAb C-terminal domain (CTD) (Acinetobacter baumannii ATCC 17978).
Experiment [2] concerns the target full length UmuDAb transcription repressor from Acinetobacter baumannii (Acinetobacter baumannii ATCC 17978).
The target in experiment [3] is full-length UmuD, component of DNA polymerase V, from Acinetobacter baumannii (Acinetobacter baumannii ATCC 17978).

For “DdrR protein from Acinetobacter baumannii (natural protein)”, the Kd (in general, the concentration at which binding is half-saturated) turned out to be 106 nM in experiment [1], 83.3 nM in experiment [2] and 294 nM in experiment [3].
